From paper PMC6858323, “Multiple conformations facilitate PilT function in the type IV pilus” (Nature Communications, 2019) come the findings set out here.

This data set deals with the molecule itself. Description: cryoEM 2D class averages; PilT^Pa 0.75 mg/ml without added nucleotide, 4 °C; top-view 2D class averages compared with projections of PilT crystal structures.

B1: PilT from Pseudomonas aeruginosa (PilT^Pa), purified (enzyme)
chain: MDITELLAFSAKQGASDLHLSAGLPPMIRVDGDVRRINLPPLEHKQVHALIYDIMNDKQRKDFEEFLETDFSFEVPGVARFRVNAFNQNRGAGAVFRTIPSKVLTMEELGMGEVFKRVSDVPRGLVLVTGPTGSGKSTTLAAMLDYLNNTKYHHILTIEDPIEFVHESKKCLVNQREVHRDTLGFSEALRSALREDPDIILVGEMRDLETIRLALTAAETGHLVFGTLHTTSAAKTIDRVVDVFPAEEKAMVRSMLSESLQSVISQTLIKKIGGGRVAAHEIMIGTPAIRNLIREDKVAQMYSAIQTGGSLGMQTLDMCLKGLVAKGLISRENAREKAKIPENF
notes: PilT, Pseudomonas aeruginosa, expressed from pET28a:PilT^Pa; the cloning of this plasmid is not described; also called apo-PilT^Pa; wild-type PilT^Pa; source: E. coli BL21-CodonPlus, purified (Ni-NTA, Superdex 200 SEC)
On to B1, for which the “stoichiometry N” value was 6.

B2: K58A PilT from Pseudomonas aeruginosa, purified (enzyme)
chain: MDITELLAFSAKQGASDLHLSAGLPPMIRVDGDVRRINLPPLEHKQVHALIYDIMNDAQRKDFEEFLETDFSFEVPGVARFRVNAFNQNRGAGAVFRTIPSKVLTMEELGMGEVFKRVSDVPRGLVLVTGPTGSGKSTTLAAMLDYLNNTKYHHILTIEDPIEFVHESKKCLVNQREVHRDTLGFSEALRSALREDPDIILVGEMRDLETIRLALTAAETGHLVFGTLHTTSAAKTIDRVVDVFPAEEKAMVRSMLSESLQSVISQTLIKKIGGGRVAAHEIMIGTPAIRNLIREDKVAQMYSAIQTGGSLGMQTLDMCLKGLVAKGLISRENAREKAKIPENF
notes: PilT, Pseudomonas aeruginosa, with K58A; the expression construct of the purified mutant is not described; also called K58A PilT^Pa; K58A mutant; source: purified
On to B2, for which the “stoichiometry N” value was 6.

The term stoichiometry N denotes a count of units in the complex or per binding partner.
